Data: patent CN111690058A (SANYOU BIO INC; SHANGHAI ZJ BIO TECH CO LTD, dated 2020)

Assays:
[1] = molecular target: T1, S蛋白RBD-His (319Arg-532Asn) (2019-nCoV (SARS-CoV-2), UniProt P0DTC2 319-532)
[2] = molecular target: T1, S蛋白RBD-His (319Arg-532Asn); experiment: BLI (Fortebio), RBD-His on Anti-Penta-HIS sensor, antibody in solution

B1: 候选抗体P16-A3 (全长人IgG1, κ轻链) (antibody, V domains shown)
VH: QVQLVESGGGVVQPGRSLRLSCAASGFTFSSYGMHWVRQAPGKGLEWVAVISYDGSNKYYADSVKGRFTISRDNSKNTLYLQMNSLRAEDTAVYYCARAYSSSWLLQSFYYYGMDVWGQGTTVTVSS
VL: NIQLTQSPVSLSASVGDRVTLTCRASQGIGYSLVWYQKKPGTAPKLLIFDASTLQSGVPSRFSGSGSGTDFTLTISSLQPEDSATYYCQQVIHYPLTFGGGTKVEIK
For B1, the IC50 [1] was 7.7 nM, the Kd [2] was 0.415 nM and the koff [2] was 7.17e-05 s⁻¹. For the same binder, the kon [2] was 173000 M⁻¹ s⁻¹.
